# Laboratory results as given in article PMC10470544, “Pathogen-specific structural features of Candida albicans Ras1 activation complex: uncovering new antifungal drug targets” (mBio, 2023).
# B1: full-length Candida albicans Ras-like protein 1 (CaRas1-FL, 1–290) (natural protein)
# chain: MLREYKLVVVGGGGVGKSALTIQLIQSHFVDEYDPTIEDSYRKQCTIDDQQVLLDVLDTAGQEEYSAMREQYMRTGEGFLLVYSINSLNSFQELNSFYDQILRVKDSDNVPVLVVGNKCDLEMERQVSYEDGLALANSFNCPFLETSAKQRINVEEAFYGLVRNINQYNAKIAEAEKQQQQQQQQQNANQQGQDQYGQQKDNQQSQFNNQINNNNNTSAVNGGVSSDGIIDQNGNGGVSSGQANLPNQSQSQSQRQQQQQQQEPQQQSENQFSGQKQSSSKSKNGCCVIV
# notes: Ras-like protein 1 (CaRas1), Candida albicans, full-length protein, residues 1-290 (G-domain 1-166, hypervariable region 167-290); Monomeric in solution by SAXS; also called full-length CaRas1
# B2: isolated G-domain of CaRas1 (1–166) (domain or fragment)
# chain: MLREYKLVVVGGGGVGKSALTIQLIQSHFVDEYDPTIEDSYRKQCTIDDQQVLLDVLDTAGQEEYSAMREQYMRTGEGFLLVYSINSLNSFQELNSFYDQILRVKDSDNVPVLVVGNKCDLEMERQVSYEDGLALANSFNCPFLETSAKQRINVEEAFYGLVRNIN
# notes: Ras-like protein 1 (CaRas1), Candida albicans, GTPase domain (G-domain), residues 1-166; Monomeric in solution by SAXS; also called CaRas1 G-domain
# Tests used:
# [1] = target: T1, catalytic region of CaCdc25 (REM-CAT tandem) (Candida albicans, UniProt P43069); assay: SAXS; small angle X-ray scattering in solution, P12 beamline (EMBL, DESY), profiles extrapolated to infinite dilution; oligomeric state and stoichiometry deduced from the estimated masses (Table S1); conditions: both partners purified
# T1 construct: PDB 7NZZ holds this construct; also called REM-CAT tandem of CaCdc25; catalytic region of the CaRas1 guanine nucleotide exchange factor CaCdc25
# T1 sequence: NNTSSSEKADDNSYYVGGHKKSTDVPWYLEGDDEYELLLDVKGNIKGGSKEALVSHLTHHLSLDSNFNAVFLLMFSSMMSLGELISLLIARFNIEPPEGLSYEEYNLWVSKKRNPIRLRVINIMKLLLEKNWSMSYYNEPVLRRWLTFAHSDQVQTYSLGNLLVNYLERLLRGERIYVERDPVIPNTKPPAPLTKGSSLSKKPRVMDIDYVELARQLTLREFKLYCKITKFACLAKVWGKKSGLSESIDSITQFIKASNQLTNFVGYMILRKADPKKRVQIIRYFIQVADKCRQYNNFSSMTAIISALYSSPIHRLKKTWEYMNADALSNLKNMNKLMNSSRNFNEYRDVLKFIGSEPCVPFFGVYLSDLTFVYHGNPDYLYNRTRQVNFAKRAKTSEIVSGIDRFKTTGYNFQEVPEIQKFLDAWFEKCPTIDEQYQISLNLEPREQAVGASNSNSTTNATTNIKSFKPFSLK
# [2] = target: T1, catalytic region of CaCdc25 (REM-CAT …); assay: ITC; recombinant CaCdc25 (REM-CAT tandem) titrated with CaRas1-FL or G-domain, MicroCal VP-ITC, single binding site model; conditions: both partners purified
Binder,stoichiometry N [1],Kd [2] [µM]
B1,1,9
B2,1,9
